From article PMC10694151, “Regulation of the cell division hydrolase RipC by the FtsEX system in Mycobacterium tuberculosis” (Nature Communications, 2023)

Molecular target: T1, RipC (Rv2190c) of Mycobacterium tuberculosis, construct RipCΔ33 (Mycobacterium tuberculosis, UniProt P9WHU3 34-385)
T1 construct: also called MtbRipC; RipC∆33
T1 sequence: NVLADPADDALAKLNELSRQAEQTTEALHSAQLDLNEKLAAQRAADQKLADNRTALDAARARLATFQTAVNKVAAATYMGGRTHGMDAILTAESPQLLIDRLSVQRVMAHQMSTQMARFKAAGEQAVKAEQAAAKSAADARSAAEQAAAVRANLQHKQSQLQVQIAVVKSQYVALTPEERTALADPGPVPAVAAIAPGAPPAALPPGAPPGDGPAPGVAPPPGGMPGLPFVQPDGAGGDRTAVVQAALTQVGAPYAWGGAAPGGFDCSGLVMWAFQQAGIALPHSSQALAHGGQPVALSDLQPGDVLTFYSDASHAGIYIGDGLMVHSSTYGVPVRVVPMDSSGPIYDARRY
Experiment: cryo-EM structure; FtsEX or FtsEX-RipC in peptidiscs, 3 mg/ml, ATP-free
Conditions: both partners purified

B1: FtsX (Rv3101c) of Mycobacterium tuberculosis (natural protein)
chain: MRFGFLLNEVLTGFRRNVTMTIAMILTTAISVGLFGGGMLVVRLADSSRAIYLDRVESQVFLTEDVSANDSSCDTTACKALREKIETRSDVKAVRFLNRQQAYDDAIRKFPQFKDVAGKDSFPASFIVKLENPEQHKDFDTAMKGQPGVLDVLNQKELIDRLFAVLDGLSNAAFAVALVQAIGAILLIANMVQVAAYTRRTEIGIMRLVGASRWYTQLPFLVEAMLAATMGVGIAVAGLMVVRALFLENALNQFYQANLIAKVDYADILFITPWLLLLGVAMSGLTAYLTLRLYVRR
notes: also called MtbFtsX
B1: binds.
